Measured values: patent publication US20240067751A1 (KEYMED BIOSCIENCES, published 2024)
Positions count from the first letter of the chain named.

B1: h16B11 H1K1 (antibody, V domains shown)
VH: QMQLQESGPGLVKPSETLSLTCTVSGYSITSDYAWNWIRQPPGKGLEWIGYISYSGRTSYNPSLKSRVTISRDTSKNQFSLKLSSVTAADTAVYYCARHYGDYWGQGTLVTVSS
VL: DIQMTQSPSSLSASVGDRVTITCRASQNVGTNVAWYQQKPGKAPKALIYSASYRESGVPSRFSGSGSGTDFTLTISSLQPEDFATYFCQQFNTNPLTFGGGTKVEIK
B2: h16B11 H3K3 (antibody, V domains shown)
VH: B1 VH with M2L, R72V
VL: B1 VL with E55Q
B3: h16B11 H2K1 (antibody, V domains shown)
VH: B1 VH with M2L
VL: B1 VL
B4: h16B11 H2K3 (antibody, V domains shown)
VH: B1 VH with M2L
VL: B1 VL with E55Q
B5: h16B11 H3K1 (antibody, V domains shown)
VH: B1 VH with M2L, R72V
VL: B1 VL
B6: h16B11 H1K3 (antibody, V domains shown)
VH: B1 VH
VL: B1 VL with E55Q
B7: h3H6 H1K1 (antibody, V domains shown)
VH: QVQLVQSGAEVKKPGSSVKVSCKASGYTFATYSIHWVRQAPGQGLEWMGYINPSSGYTNYNQKFQGRVTLTADKSTSTAYMELSSLRSEDTAVYYCARVYYTFYHAMDYWGQGTTVTVSS
VL: DIQMTQSPSSLSASVGDRVTITCRASQDVNTAVAWYQQKPGKAPKLLIYSASYRYTGVPSRFSGSGSGTDFTLTISSLQPEDFATYYCQQHYNIPLTFGGGTKVEIK
B8: h28O14 H4K1 (antibody, V domains shown)
VH: QVQLVQSGAEVKKPGSSVKVSCKASGYTFRSHTMHWVRQAPGQGLEWMGYINPSTGYINYNQKFQGRVTITADESTSTAYMELSSLRSEDTAVYYCARSNYAYYYGMDYWGQGTTVTVSS
VL: B7 VL
B9: h16B11 H2K2 (antibody, V domains shown)
VH: B1 VH with M2L
VL: B1 VL with A46L
B10: h3H6 H3K1 (antibody, V domains shown)
VH: B7 VH with L70I
VL: B7 VL
B11: h3H6 H4K1 (antibody, V domains shown)
VH: B7 VH with L70I, K74E
VL: B7 VL
B12: h28O14 H2K1 (antibody, V domains shown)
VH: B8 VH with I70L
VL: B7 VL
B13: h16B11 H1K2 (antibody, V domains shown)
VH: B1 VH
VL: B1 VL with A46L
B14: h28O14 H3K1 (antibody, V domains shown)
VH: B8 VH with E74K
VL: B7 VL
B15: h3H6 H2K1 (antibody, V domains shown)
VH: B7 VH with K74E
VL: B7 VL
B16: h28O14 H1K1 (antibody, V domains shown)
VH: B8 VH with I70L, E74K
VL: B7 VL
B17: h16B11 H3K2 (antibody, V domains shown)
VH: B1 VH with M2L, R72V
VL: B1 VL with A46L
B18: h16B11 H3K4 (antibody, V domains shown)
VH: B1 VH with M2L, R72V
VL: EIVMTQSPATLSVSPGERATLSCRASQNVGTNVAWYQQKPGQAPRALIYSASYRESGIPARFSGSGSGTEFTLTISSLQSEDFAVYFCQQFNTNPLTFGGGTKVEIK
B19: h16B11 H2K5 (antibody, V domains shown)
VH: B1 VH with M2L
VL: B18 VL with A46L
B20: h16B11 H2K4 (antibody, V domains shown)
VH: B1 VH with M2L
VL: B18 VL
B21: h16B11 H1K6 (antibody, V domains shown)
VH: B1 VH
VL: B18 VL with E55Q
B22: h16B11 H1K5 (antibody, V domains shown)
VH: B1 VH
VL: B18 VL with A46L
B23: h16B11 H3K5 (antibody, V domains shown)
VH: B1 VH with M2L, R72V
VL: B18 VL with A46L
B24: h16B11 H1K4 (antibody, V domains shown)
VH: B1 VH
VL: B18 VL
B25: h16B11 H2K6 (antibody, V domains shown)
VH: B1 VH with M2L
VL: B18 VL with E55Q
B26: h16B11 H3K6 (antibody, V domains shown)
VH: B1 VH with M2L, R72V
VL: B18 VL with E55Q

molecular target: T1, MASP-2 in human serum (human, UniProt O00187 16-686); experiment: cell-based or functional assay
T1 sequence (O00187 16-686 limits assumed): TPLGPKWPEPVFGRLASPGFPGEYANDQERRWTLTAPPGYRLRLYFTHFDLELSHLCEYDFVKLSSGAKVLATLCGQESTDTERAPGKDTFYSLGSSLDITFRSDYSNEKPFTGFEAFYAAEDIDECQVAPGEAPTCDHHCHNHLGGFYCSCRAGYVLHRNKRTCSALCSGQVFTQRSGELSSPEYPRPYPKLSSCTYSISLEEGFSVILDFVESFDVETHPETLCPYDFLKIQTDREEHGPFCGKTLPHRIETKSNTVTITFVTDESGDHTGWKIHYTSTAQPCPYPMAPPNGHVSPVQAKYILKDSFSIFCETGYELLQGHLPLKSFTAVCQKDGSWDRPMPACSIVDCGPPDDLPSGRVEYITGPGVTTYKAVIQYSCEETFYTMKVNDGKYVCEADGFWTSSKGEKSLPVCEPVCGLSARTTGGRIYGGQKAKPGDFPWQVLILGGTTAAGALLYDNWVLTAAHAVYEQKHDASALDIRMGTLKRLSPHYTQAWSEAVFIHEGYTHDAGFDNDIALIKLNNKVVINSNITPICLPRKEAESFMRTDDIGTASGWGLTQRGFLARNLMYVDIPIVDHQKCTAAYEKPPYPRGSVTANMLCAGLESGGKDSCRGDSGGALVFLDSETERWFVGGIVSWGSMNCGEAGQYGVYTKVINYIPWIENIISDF

Row | Binder | IC50, inhibition of C4b deposition [nM]
1 | B1 | 0.02
2 | B2 | 0.44
3 | B3 | 0.02
4 | B4 | 0.012
5 | B5 | 0.098
6 | B6 | 0.021
7 | B7 | 0.014
8 | B8 | 0.338
9 | B9 | 0.032
10 | B10 | 0.017
11 | B11 | 0.09
12 | B12 | 0.324
13 | B13 | 0.051
14 | B14 | 0.064
15 | B15 | 0.086
16 | B16 | 0.083
17 | B17 | 1.69

molecular target: T1, MASP-2 in human serum; experiment: cell-based or functional assay; remark: another data set of the same source

Row | Binder | IC50, inhibition of C3b deposition [nM]
18 | B1 | 0.014
19 | B18 | 0.052
20 | B19 | 0.032
21 | B20 | 0.015
22 | B21 | 0.018
23 | B22 | 0.024
24 | B23 | 0.44
25 | B24 | 0.015
26 | B2 | 0.112
27 | B3 | 0.017
28 | B4 | 0.018
29 | B25 | 0.018
30 | B5 | 0.06
31 | B6 | 0.023
32 | B26 | 0.071
33 | B7 | 0.03
34 | B8 | 0.506
35 | B9 | 0.028
36 | B10 | 0.034
37 | B11 | 0.151
38 | B12 | 0.483
39 | B13 | 0.04
40 | B14 | 0.161
41 | B15 | 0.151
42 | B16 | 0.146
43 | B17 | 0.399
